Measured values: PMC3261159

Target: 14-3-3ζ (UniProt P63104)
Assay: anti-HA co-IP, Myc Western blot
Settings: reference: wild-type Myc-Stat3 (688–770); sites S727

binding against the reference: lost
Substance: Stat3 C-terminal region, 688-770 (from UniProt P40763) S727A
